Laboratory results reported in patent US5851983A, “Elastase inhibitory polypeptide and process for production thereof by recombinant gene technology” (Teijin Limited, priority 1987, dated 1998).

Legend:
Porcine FXa [1] = experiment: Assay for Fxa inhibitory activity (Example 36); format: biochemical; conditions: final concentration up to ×10^-5 M; enzyme 1.0 × 10^-8 M
Experimental: (§1) I. Porcine FXa (Daichi Seiyaku)
(§2) Thrombin and FXa: 50 mM Tris-HCl, 7.5 mM EDTA-2Na, 175 mM NaCl (pH 8.4) […]
(§3) Substrate solution: for the enzymes F, G, H and I, the following substrate f, g, h or i, respectively, was dissolved to a final concentration shown in Table 24.
i. Ratio 1:1 mixture of the following compounds: [drawing 6]
(§4) To wells of an ELISA 96-well microtiter plate, were added a solution of (Arg^58 -Ala^107) SLPI obtained in Example 34 and then the enzyme solution, and the mixture was incubated at 37° C. for 10 minutes. Next, the substrate solution was added to develop the color, whose absorption was then measured at 405 nm. As a control, SLPI was used.

Human plasma kallikrein [2] = target: T1, Human plasma kallikrein (Homo sapiens, UniProt P03952); experiment: Assay for kallikrein inhibitory activity (Example 36); format: biochemical; conditions: final concentration up to ×10^-5 M; enzyme 1.0 × 10^-7 M
T1 construct: (7) Human plasma kallikrein (Kabi, Daiichi Kagaku Yakuhin); purchased Kabi (via Daiichi Kagaku Yakuhin); host or cells: human plasma
T1 sequence (P03952 391-638 limits assumed): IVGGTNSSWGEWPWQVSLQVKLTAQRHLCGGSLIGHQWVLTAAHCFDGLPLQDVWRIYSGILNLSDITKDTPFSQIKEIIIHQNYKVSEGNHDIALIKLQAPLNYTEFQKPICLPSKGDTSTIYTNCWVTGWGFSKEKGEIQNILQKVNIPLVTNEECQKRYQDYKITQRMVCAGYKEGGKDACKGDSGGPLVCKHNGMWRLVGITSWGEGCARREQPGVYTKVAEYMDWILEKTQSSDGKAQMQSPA
T1 sequence (P03952 20-390 partner limits assumed): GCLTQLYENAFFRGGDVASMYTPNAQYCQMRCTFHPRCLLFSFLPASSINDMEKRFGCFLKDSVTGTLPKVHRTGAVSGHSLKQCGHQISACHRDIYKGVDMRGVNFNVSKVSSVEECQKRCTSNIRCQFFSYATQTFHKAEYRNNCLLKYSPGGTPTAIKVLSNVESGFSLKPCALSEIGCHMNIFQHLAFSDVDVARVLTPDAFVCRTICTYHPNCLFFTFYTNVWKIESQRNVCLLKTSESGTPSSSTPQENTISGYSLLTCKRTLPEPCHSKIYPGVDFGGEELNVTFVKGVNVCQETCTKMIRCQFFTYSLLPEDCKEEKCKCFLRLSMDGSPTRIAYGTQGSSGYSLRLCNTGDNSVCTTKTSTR
Experimental: (§5) H. Human plasma kallikrein (Protogene, Funakoshi Yakuhin)
Kallikrein: 50 mM Tris-HCl, 361 mM NaCl, 0.01 mg/ml Polybrene (pH 7.8) […]
as §3
(§6) h. H.D-Pro-Phe-Arg-pNA (Kabi Vitram)
as §4

[3] = Partial hydrolysis with healthy human saliva (Examples 15, 16); format: in vitro ADME; conditions: 37° C.
Experimental: Healthy human saliva was filtered through a 0.22 μm filter (Milex GS, Milipore), and in the filtrate was dissolved 1 mg/ml of the SLPI prepared in Reference Example 1. The mixture was then incubated at 37° C. for 30 days. As a control, the SLPI was dissolved in physiological saline (Physisalz; Fuso Yakuhin Kogyo), and the mixture was incubated at 37° C. for 30 days.
With an elapse of time, samples were taken and to each sample were added a Tris-HCl buffer (pH 6.8), SDS, 2-mercaptoethamel and glycerol, to final concentration of 60 mM, 2% by weight, 4% by weight and 10% by weight, respectively, and the mixture was subjected to an SDS-PAGE (U.K. Laemmli, Nature, 227, 680, 1970). The gel after electrophoresis was stained with Coomussie Brilliant Blue.
Next, polypeptides in the polyacrylamide gel thus obtained were electrically transferred to a membrane (Immobilon; Milipore) using a Milli Blot-SDE apparatus. After the transfer, the membrane was stained with 0.1% by weight of Coomassie Blue in 40% by weight methanol/1% by weight acetic acid, and washed with water. Then, after air drying, the bands b, c, d and e were excised, and for each band, the PTH-amino acids were cleaved from the N-terminus with an Applied Biosystems Protein Sequences (Applied Biosystems; 470A) and analysed with a PTH analyser (Applied Biosystems, 120A) to determine an amino acid sequence for 10 amino acids from the N-terminus.
According to the same procedure as described in Example 15, (Asn^55 -Ala^107) SLPI prepared in Example 11 was treated with healthy human saliva at 37° C., and a result is shown in FIG. 13. […] After 12 hours, a new band g (MW about 5,500) appeared.
Next, according to the same procedure as described in Example 15, the band g was electrically transferred to a membrane and N-terminal amino acid sequence was analyzed. […] The 6th amino acid could not be determined. The N-terminal amino acid sequence of the band g corresponds to an amino acid sequence starting from Arg^59 of SLPI.

Human plasma plasmin [4] = target: T2, Human plasma plasmin (Homo sapiens, UniProt P00747); experiment: Assay for plasmin inhibitory activity (Example 36); format: biochemical; conditions: final concentration up to ×10^-5 M; enzyme 1.0 × 10^-7 M
T2 construct: (6) Human plasma plasmin (Kabi, Daiichi Kagaku Yakuhin); purchased Kabi (via Daiichi Kagaku Yakuhin); host or cells: human plasma
T2 sequence (P00747 581-810 limits assumed): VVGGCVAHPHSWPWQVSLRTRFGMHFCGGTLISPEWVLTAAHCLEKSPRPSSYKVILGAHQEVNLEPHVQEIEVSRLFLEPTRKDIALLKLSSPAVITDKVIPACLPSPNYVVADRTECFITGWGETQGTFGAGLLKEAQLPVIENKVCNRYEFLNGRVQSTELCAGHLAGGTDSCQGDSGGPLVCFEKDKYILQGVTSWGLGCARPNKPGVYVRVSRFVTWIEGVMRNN
T2 sequence (P00747 97-580 partner limits assumed): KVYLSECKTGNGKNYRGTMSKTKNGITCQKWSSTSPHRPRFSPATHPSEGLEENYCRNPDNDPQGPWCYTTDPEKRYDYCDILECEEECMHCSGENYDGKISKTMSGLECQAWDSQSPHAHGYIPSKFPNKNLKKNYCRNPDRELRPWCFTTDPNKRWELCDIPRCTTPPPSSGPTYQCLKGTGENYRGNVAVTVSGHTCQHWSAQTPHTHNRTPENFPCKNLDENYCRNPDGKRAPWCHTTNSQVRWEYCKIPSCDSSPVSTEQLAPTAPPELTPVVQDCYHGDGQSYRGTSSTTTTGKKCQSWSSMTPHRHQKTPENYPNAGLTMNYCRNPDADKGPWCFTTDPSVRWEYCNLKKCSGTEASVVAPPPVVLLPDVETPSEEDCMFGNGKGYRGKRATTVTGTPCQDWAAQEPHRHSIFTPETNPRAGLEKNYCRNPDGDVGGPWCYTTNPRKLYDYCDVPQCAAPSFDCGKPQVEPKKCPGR
Experimental: (§7) G. Human plasma plasmin (sigma)
(§8) Plasmin: 50 mM Tris-HCl, 100 mM NaCl (pH 7.4) […]
as §3
(§9) g. H.D-Val-Leu-Lys-pNA (Kabi Vitrum)
as §4

Porcine FXa [5] = experiment: Assay for Fxa inhibitory activity (Example 25); format: biochemical; conditions: final concentration up to ×10^-5 M; enzyme 1.0 × 10^-8 M
Experimental: as §1
Buffer: Buffer solution for each enzyme is as follow. Thrombin and FXa: 50 mM Tris-HCl, 7.5 mM EDTA-2Na, 175 mM NaCl (pH 8.4) […]
(§10) Substrate solution: for the enzymes F, G, H and I, the following substrate f, g, h or i, respectively, was dissolved to a final concentration shown in Table 14.
i. Ratio 1:1 mixture of the following compounds: [drawing 5]
as §4, with “(Arg^59” for “(Arg^58”, “23” for “34”

Human plasma kallikrein [6] = target: T1, Human plasma kallikrein; experiment: Assay for kallikrein inhibitory activity (Example 25); format: biochemical; conditions: final concentration up to ×10^-5 M; enzyme 1.0 × 10^-7 M
Experimental: as §5
Kallikrein: 50 mM Tris-HCl, 361 mM NaCl, 0.01 mg/ml polybrene (pH 7.8) […]
as §10, §6
as §4, with “(Arg^59” for “(Arg^58”, “23” for “34”

Human plasma plasmin [7] = target: T2, Human plasma plasmin; experiment: Assay for plasmin inhibitory activity (Example 25); format: biochemical; conditions: final concentration up to ×10^-5 M; enzyme 1.0 × 10^-7 M
Experimental: as §7, §8, §10, §9
as §4, with “(Arg^59” for “(Arg^58”, “23” for “34”

Human plasma thrombin = target: T3, Human plasma thrombin (Homo sapiens, UniProt P00734); experiment: Assay for thrombin inhibitory activity (Example 36); format: biochemical; conditions: final concentration up to ×10^-5 M; enzyme 3 × 10^-9 M
T3 construct: (5) Human plasma thrombin (Kabi, Daiichi Kagaku Yakuhin); purchased Kabi (via Daiichi Kagaku Yakuhin); host or cells: human plasma
Experimental: F. Human plasma thrombin (Sigma)
as §2, §3
f. H.D-Phe-Pip-Arg-pNA (Kabi Vitrum)
as §4

inhibitory activity to kallikrein (Human plasma kallikrein [2]): did not exhibit inhibitory activity | inhibitory activity to plasmin (Human plasma plasmin [4]): did not exhibit inhibitory activity | inhibitory activity to kallikrein (Human plasma kallikrein [6]): did not exhibit inhibitory activity | inhibitory activity to plasmin (Human plasma plasmin [7]): did not exhibit inhibitory activity | inhibitory activity to thrombin (Human plasma thrombin): did not exhibit inhibitory activity
B1: SLPI: Human secretory leukoprotease inhibitor; recombinant SLPI of Reference Example 1 used as control (protein)
chain: SGKSFKAGVCPPKKSAQCLRYKKPECQSDWQCPGKKRCCPDTCGIKCLDPVDTPNPTRRKPGKCPVTYGQCLMLNPPNFCEMDGQCKRDLKCCMGMCGKSCVSPVKA
inhibitory activity to FXa (Porcine FXa [1]): did not exhibit inhibitory activity | SDS-PAGE band of SLPI (MW about 13,000) during incubation in healthy human saliva ([3]; 1 mg/ml, up to 30 days): decreased as time elapid | SDS-PAGE band after incubation in physiological saline (control) ([3]; 30 days): maintained a band having an MW of about 13,000 during the incubation | cleavage sites in healthy human saliva ([3]; SDS-PAGE bands, N-terminal sequencing): between Arg^20 -Try^21, Arg^58 -Arg^59, Leu^72 -Met^73, and Met^73 -Leu^74 | inhibitory activity to FXa (Porcine FXa [5]): did not exhibit inhibitory activity
